Experimental data taken from IntAct's records for PubMed 38225382.

B1: Host cell factor 1 (Homo sapiens), P51610-3 (parent)
chain: MASAVSPANLPAVLLQPRWKRVVGWSGPVPRPRHGHRAVAIKELIVVFGGGNEGIVDELHVYNTATNQWFIPAVRGDIPPGCAAYGFVCDGTRLLVFGGMVEYGKYSNDLYELQASRWEWKRLKAKTPKNGPPPCPRLGHSFSLVGNKCYLFGGLANDSEDPKNNIPRYLNDLYILELRPGSGVVAWDIPITYGVLPPPRESHTAVVYTEKDNKKSKLVIYGGMSGCRLGDLWTLDIDTLTWNKPSLSGVAPLPRSLHSATTIGNKMYVFGGWVPLVMDDVKVATHEKEWKCTNTLACLNLDTMAWETILMDTLEDNIPRARAGHCAVAINTRLYIWSGRDGYRKAWNNQVCCKDLWYLETEKPPPPARVQLVRANTNSLEVSWGAVATADSYLLQLQKYDIPATAATATSPTPNPVPSVPANPPKSL
partner: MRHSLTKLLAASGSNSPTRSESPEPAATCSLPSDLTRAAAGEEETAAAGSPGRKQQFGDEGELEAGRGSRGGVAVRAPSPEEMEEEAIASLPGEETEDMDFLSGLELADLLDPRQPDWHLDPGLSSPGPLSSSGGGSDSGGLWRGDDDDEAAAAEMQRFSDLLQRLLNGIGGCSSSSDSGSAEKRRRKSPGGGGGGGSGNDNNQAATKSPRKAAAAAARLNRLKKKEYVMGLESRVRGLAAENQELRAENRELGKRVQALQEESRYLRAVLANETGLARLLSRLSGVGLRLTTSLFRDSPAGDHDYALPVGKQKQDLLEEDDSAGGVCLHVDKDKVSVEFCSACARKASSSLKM
B2: Peroxisomal biogenesis factor 19 (Homo sapiens), P40855 (parent)
chain: MAAAEEGCSVGAEADRELEELLESALDDFDKAKPSPAPPSTTTAPDASGPQKRSPGDTAKDALFASQEKFFQELFDSELASQATAEFEKAMKELAEEEPHLVEQFQKLSEAAGRVGSDMTSQQEFTSCLKETLSGLAKNATDLQNSSMSEEELTKAMEGLGMDEGDGEGNILPIMQSIMQNLLSKDVLYPSLKEITEKYPEWLQSHRESLPPEQFEKYQEQHSVMCKICEQFEAETPTDSETTQKARFEMVLDLMQQLQDLGHPPKELAGEMPPGLNFDLDALNLSGPPGASGEQCLIM
B3: Estrogen-related receptor gamma (Homo sapiens), P62508-3 (parent)
chain: MSNKDRHIDSSCSSFIKTEPSSPASLTDSVNHHSPGGSSDASGSYSSTMNGHQNGLDSPPLYPSAPILGGSGPVRKLYDDCSSTIVEDPQTKCEYMLNSMPKRLCLVCGDIASGYHYGVASCEACKAFFKRTIQGNIEYSCPATNECEITKRRRKSCQACRFMKCLKVGMLKEGVRLDRVRGGRQKYKRRIDAENSPYLNPQLVQPAKKPLLWSDPADNKIVSHLLVAEPEKIYAMPDPTVPDSDIKALTTLCDLADRELVVIIGWAKHIPGFSTLSLADQMSLLQSAWMEILILGVVYRSLSFEDELVYADDYIMDEDQSKLAGLLDLNNAILQLVKKYKSMKLEKEEFVTLKAIALANSDSMHIEDVEAVQKLQDVLHEALQDYEAGQHMEDPRRAGKMLMTLPLLRQTSTKAVQHFYNIKLEGKVPMHKLFLEMLEAKV
B4: GRB10-interacting GYF protein 1 (Homo sapiens), O75420 (parent)
chain: MAAETLNFGPEWLRALSGGGSVASPPPSPAMPKYKLADYRYGREEMLALYVKENKVPEELQDKEFAAVLQDEPLQPLALEPLTEEEQRNFSLSVNSVAVLRLMGKGAGPPLAGTSRGRGSTRSRGRGRGDSCFYQRSIEEGDGAFGRSPREIQRSQSWDDRGERRFEKSARRDGARCGFEEGGAGPRKEHARSDSENWRSLREEQEEEEEGSWRLGAGPRRDGDRWRSASPDGGPRSAGWREHGERRRKFEFDLRGDRGGCGEEEGRGGGGSSHLRRCRAPEGFEEDKDGLPEWCLDDEDEEMGTFDASGAFLPLKKGPKEPIPEEQELDFQGLEEEEEPSEGLEEEGPEAGGKELTPLPPQEEKSSSPSPLPTLGPLWGTNGDGDETAEKEPPAAEDDIRGIQLSPGVGSSAGPPGDLEDDEGLKHLQQEAEKLVASLQDSSLEEEQFTAAMQTQGLRHSAAATALPLSHGAARKWFYKDPQGEIQGPFTTQEMAEWFQAGYFSMSLLVKRGCDEGFQPLGEVIKMWGRVPFAPGPSPPPLLGNMDQERLKKQQELAAAALYQQLQHQQFLQLVSSRQLPQCALREKAALGDLTPPPPPPPQQQQQQLTAFLQQLQALKPPRGGDQNLLPTMSRSLSVPDSGRLWDVHTSASSQSGGEASLWDIPINSSTQGPILEQLQLQHKFQERREVELRAKREEEERKRREEKRRQQQQEEQKRRQEEEELFRRKHVRQQELLLKLLQQQQAVPVPPAPSSPPPLWAGLAKQGLSMKTLLELQLEGERQLHKQPPPREPARAQAPNHRVQLGGLGTAPLNQWVSEAGPLWGGPDKSGGGSSGLGLWEDTPKSGGSLVRGLGLKNSRSSPSLSDSYSHLSGRPIRKKTEEEEKLLKLLQGIPRPQDGFTQWCEQMLHTLSATGSLDVPMAVAILKEVESPYDVHDYIRSCLGDTLEAKEFAKQFLERRAKQKASQQRQQQQEAWLSSASLQTAFQANHSTKLGPGEGSKAKRRALMLHSDPSILGYSLHGSSGEIESVDDY
B5: E3 ubiquitin-protein ligase TRIM37 (Homo sapiens), O94972 (parent)
chain: MDEQSVESIAEVFRCFICMEKLRDARLCPHCSKLCCFSCIRRWLTEQRAQCPHCRAPLQLRELVNCRWAEEVTQQLDTLQLCSLTKHEENEKDKCENHHEKLSVFCWTCKKCICHQCALWGGMHGGHTFKPLAEIYEQHVTKVNEEVAKLRRRLMELISLVQEVERNVEAVRNAKDERVREIRNAVEMMIARLDTQLKNKLITLMGQKTSLTQETELLESLLQEVEHQLRSCSKSELISKSSEILMMFQQVHRKPMASFVTTPVPPDFTSELVPSYDSATFVLENFSTLRQRADPVYSPPLQVSGLCWRLKVYPDGNGVVRGYYLSVFLELSAGLPETSKYEYRVEMVHQSCNDPTKNIIREFASDFEVGECWGYNRFFRLDLLANEGYLNPQNDTVILRFQVRSPTFFQKSRDQHWYITQLEAAQTSYIQQINNLKERLTIELSRTQKSRDLSPPDNHLSPQNDDALETRAKKSACSDMLLEGGPTTASVREAKEDEEDEEKIQNEDYHHELSDGDLDLDLVYEDEVNQLDGSSSSASSTATSNTEENDIDEETMSGENDVEYNNMELEEGELMEDAAAAGPAGSSHGYVGSSSRISRRTHLCSAATSSLLDIDPLILIHLLDLKDRSSIENLWGLQPRPPASLLQPTASYSRKDKDQRKQQAMWRVPSDLKMLKRLKTQMAEVRCMKTDVKNTLSEIKSSSAASGDMQTSLFSADQAALAACGTENSGRLQDLGMELLAKSSVANCYIRNSTNKKSNSPKPARSSVAGSLSLRRAVDPGENSRSKGDCQTLSEGSPGSSQSGSRHSSPRALIHGSIGDILPKTEDRQCKALDSDAVVVAVFSGLPAVEKRRKMVTLGANAKGGHLEGLQMTDLENNSETGELQPVLPEGASAAPEEGMSSDSDIECDTENEEQEEHTSVGGFHDSFMVMTQPPDEDTHSSFPDGEQIGPEDLSFNTDENSGR

Variants of: B1
Conditions: with zhang_human CREBZF
With MASAVSPANLPAVLLQPRWKRVVGWSGPVPRPRHGHRAVAIKELIVVFGGGNEGIVDELHVYNTATNQWFIPAVRGDIPPGCAAYGFVCDGTRLLVFGGMVEYGKYSNDLYELQASRWEWKRLKAKTPKNGPPPCPRLGHSFSLVGNKCYLFGGLANDSEDPKNNIPRYLNDLYILELRPGSGVVAWDIPITYGVLPPPRESHTAVVYTEKDNKKSKLVIYGGMSGCRLGDLWTLDIDTLTWNKPSLSGVAPLPRSFHSATTIGNKMYVFGGWVPLVMDDVKVATHEKEWKCTNTLACLNLDTMAWETILMDTLEDNIPRARAGHCAVAINTRLYIWSGRDGYRKAWNNQVCCKDLWYLETEKPPPPARVQLVRANTNSLEVSWGAVATADSYLLQLQKYDIPATAATATSPTPNPVPSVPANPPKSL [L257F] the “effect of a mutation on the interaction” value was “decreasing interaction strength”. With MASAVSPANLPAVLLQPRWKRVVGWSGPVPRPRHGHRAVAIKELIVVFGGGNEGIVDELHVYNTATNQWFIPAVRGDIPPGCAAYGFVCDGTRLLVFGGMVEYGKYSNDLYELQASRWEWKRLKAKTPKNGPPPCPRFGHSFSLVGNKCYLFGGLANDSEDPKNNIPRYLNDLYILELRPGSGVVAWDIPITYGVLPPPRESHTAVVYTEKDNKKSKLVIYGGMSGCRLGDLWTLDIDTLTWNKPSLSGVAPLPRSLHSATTIGNKMYVFGGWVPLVMDDVKVATHEKEWKCTNTLACLNLDTMAWETILMDTLEDNIPRARAGHCAVAINTRLYIWSGRDGYRKAWNNQVCCKDLWYLETEKPPPPARVQLVRANTNSLEVSWGAVATADSYLLQLQKYDIPATAATATSPTPNPVPSVPANPPKSL [L138F] the “effect of a mutation on the interaction” value was “decreasing interaction strength”. MASAVSPANLPAVLLQPRWKRVVGWSGPVPRPRHGHRAVAIKELIVVFGGGNEGIVDELHVYNTATNQWFIPAVRGDIPPGCAAYGFVCDGTRLLVFGGMVEYGKYSNDLYELQASRWEWKRLKAKTPKNGPPPCPRLGHSFSLVGNKCYLFGGLANDSEDPKNNIPRYLNDLYILELRPGSGVVAWDIPITYGVLPPPRESHTAVVYTEKDNKKSKLVIYGGMNGCRLGDLWTLDIDTLTWNKPSLSGVAPLPRSLHSATTIGNKMYVFGGWVPLVMDDVKVATHEKEWKCTNTLACLNLDTMAWETILMDTLEDNIPRARAGHCAVAINTRLYIWSGRDGYRKAWNNQVCCKDLWYLETEKPPPPARVQLVRANTNSLEVSWGAVATADSYLLQLQKYDIPATAATATSPTPNPVPSVPANPPKSL [S225N] was tested, and the “effect of a mutation on the interaction” value was “with no effect”.

Variants of: B2
Conditions: with pex3_human PEX3, P56589
With MAAAEEGCSVGAEADRELEELLESALDDKDKAKPSPAPPSTTTAPDASGPQKRSPGDTAKDALFASQEKFFQELFDSELASQATAEFEKAMKELAEEEPHLVEQFQKLSEAAGRVGSDMTSQQEFTSCLKETLSGLAKNATDLQNSSMSEEELTKAMEGLGMDEGDGEGNILPIMQSIMQNLLSKDVLYPSLKEITEKYPEWLQSHRESLPPEQFEKYQEQHSVMCKICEQFEAETPTDSETTQKARFEMVLDLMQQLQDLGHPPKELAGEMPPGLNFDLDALNLSGPPGASGEQCLIM [F29K] the “effect of a mutation on the interaction” value was “decreasing interaction strength”.

Variants of: B3
Conditions: with prs8_human PSMC5, P62195
Chain of prs8_human PSMC5, P62195 (P62195 whole entry): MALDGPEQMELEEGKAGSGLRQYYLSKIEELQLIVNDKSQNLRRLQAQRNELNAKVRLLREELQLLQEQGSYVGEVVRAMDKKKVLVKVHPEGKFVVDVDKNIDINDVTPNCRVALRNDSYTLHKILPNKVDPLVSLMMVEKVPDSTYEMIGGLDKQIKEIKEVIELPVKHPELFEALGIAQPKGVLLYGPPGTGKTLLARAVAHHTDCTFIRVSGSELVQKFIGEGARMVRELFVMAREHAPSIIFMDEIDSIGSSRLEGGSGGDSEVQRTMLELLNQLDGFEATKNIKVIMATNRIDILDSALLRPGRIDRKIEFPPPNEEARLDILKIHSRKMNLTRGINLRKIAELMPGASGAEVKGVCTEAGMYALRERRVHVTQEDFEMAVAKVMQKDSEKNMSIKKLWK
For MSNKDRHIDSSCSSFIKTEPSSPASLTDSVNHHSPGGSSDASGSYSSTMNGHQNGLDSPPLYPSAPILGGSGPVRKLYDDCSSTIVEDPQTKCEYMLNSMPKRLCLVCGDIASGYHYGVASCEACKAFFKRTIQGNIEYSCPATNECEITKRRRKSCQACRFMKCLKVGMLKEGVRLDRVRGGRQKYKRRIDAENSPYLNPQLVQPAKKPLLWSDPADNKIVSHLLVAEPEKIYAMPDPTVPDSDIKALTTLCDLADRELVVIEGWAKHIPGFSTLSLADQMSLLQSAWMEILILGVVYRSLSFEDELVYADDYIMDEDQSKLAGLLDLNNAILQLVKKYKSMKLEKEEFVTLKAIALANSDSMHIEDVEAVQKLQDVLHEALQDYEAGQHMEDPRRAGKMLMTLPLLRQTSTKAVQHFYNIKLEGKVPMHKLFLEMLEAKV [I264E], the “effect of a mutation on the interaction” value was “decreasing interaction strength”. In the case of MSNKDRHIDSSCSSFIKTEPSSPASLTDSVNHHSPGGSSDASGSYSSTMNGHQNGLDSPPLYPSAPILGGSGPVRKLYDDCSSTIVEDPQTKCEYMLNSMPKRLCLVCGDIASGYHYGVASCEACKAFFKRTIQGNIEYSCPATNECEITKRRRKSCQACRFMKCLKVGMLKEGVRLDRVRGGRQKYKRRIDAENSPYLNPQLVQPAKKPLLWSDPADNKIVSHLLVAEPEKIYAMPDPTVPDSDIKALTTLCDLADRELVVIIGWAKHIPGFSTLSLADQMSLLQSAWMEILILGVVYRSLSFEDELVYADDYIMDEDQSKLAGLLDLNNAILQLVKKYKSMKLEKEEFVTLKAIALANSDSMHIEDVEAVQKLQDVLHEALQDYEAGQHMEDPRRAGKMLMTLPLLRQTSTKAVQHFYNIKLEGKVPMHKLFLEFLEAKV [M437F], the “effect of a mutation on the interaction” value is reported as “decreasing interaction strength”.

Variants of: B4
Conditions: with SNRPB
In the case of W498E, the “effect of a mutation on the interaction” value is reported as “decreasing interaction strength”. In the case of L508F, the “effect of a mutation on the interaction” value is reported as “with no effect”.

Variants of: B5
Conditions: with pnkp_human PNKP
With N376R the “effect of a mutation on the interaction” value was “with no effect”. In the case of F328R, the “effect of a mutation on the interaction” value is reported as “with no effect”.
